Test results from patent publication US20120065106.

Columns and labels:
[1] = tested on: SMT3-GFP (wild-type SUMO-GFP fusion) [SUMO: Q12306]
[2] = tested on: SUMO*-GFP (engineered SUMO 2F4, Smt3 R64T R71E, fused to GFP)
Sequence of SUMO*-GFP (engineered SUMO 2F4, Smt3 R64T R71E, fused to GFP) (chain, as listed by the source R64T R71E): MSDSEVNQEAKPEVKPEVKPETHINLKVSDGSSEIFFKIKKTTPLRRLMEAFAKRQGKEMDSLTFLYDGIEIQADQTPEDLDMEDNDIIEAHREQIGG

Sequence of SMT3-GFP (wild-type SUMO-GFP fusion) [SUMO: Q12306] (Q12306 whole entry, looked up, the tested form may be a part): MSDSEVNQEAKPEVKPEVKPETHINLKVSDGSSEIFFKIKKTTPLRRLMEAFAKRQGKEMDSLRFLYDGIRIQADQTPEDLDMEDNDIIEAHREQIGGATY

## SUMO protease 2 (SENP2)
[1]
  in vitro cleavage (SDS-PAGE and anti-Smt3 Western blot): wild-type SUMO (Smt3) is cleaved by ULP1 and SENP2 (SUMO protease 1 and 2) in vitro
[2]
  in vitro cleavage reaction: Neither protease cleaved SUMO*
